The record followed here is US20240034774A1.

Residue numbers refer to the chain shown, from its start.

The chains are these.
B1: 3.1.9-1 (antibody, human IgG1, kappa, V domains shown)
VH: QVQLLQSGAAVTKPGASVRVSCEASGYNIRDYFIHWWRQAPGQGLQWVGWINPKTGQPNNPRQFQGRVSLTRHASWDFDTFSFYMDLKALRSDDTAVYFCARQRSDYWDFDVWGSGTQVTVSS
VL: DIQMTQSPSSLSARVGDTATITCQANGYLNWYQQRRGKAPKLLIYDGSKLERGVPARFSGRRWGQEYNLTINNLQPEDVATYFCQVYEFFGPGTRLDLKR
B2: 2.3.13-1 (antibody, human IgG1, kappa, V domains shown)
VH: B1 VH with Q3H, L5S, L90V, V97I
VL: B1 VL with T18R, R61S, N68I, N72S, N73S
B3: 3.1.12-1 (antibody, human IgG1, kappa, V domains shown)
VH: B1 VH
VL: B1 VL with N68I
B4: 2.2.12-1 (antibody, human IgG1, kappa, V domains shown)
VH: B1 VH with Q3H, L5S, N28K, Y32H, L90V, V97I
VL: B1 VL with N68I
B5: 1.1.117-1 (antibody, human IgG1, kappa, V domains shown)
VH: B1 VH
VL: B1 VL with R14S, A56S, N68I, V79I
B6: 1.1.118-1 (antibody, human IgG1, kappa, V domains shown)
VH: B1 VH
VL: B1 VL with R14S, T18R, A56S, R61S, N68I, N72S, N73S, V79I
B7: 2.3.12-1 (antibody, human IgG1, kappa, V domains shown)
VH: B1 VH with Q3H, L5S, L90V, V97I
VL: B1 VL with N68I
B8: 3.1.13-1 (antibody, human IgG1, kappa, V domains shown)
VH: B1 VH
VL: B1 VL with T18R, R61S, N68I, N72S, N73S
B9: 2.3.9-1 (antibody, human IgG1, kappa, V domains shown)
VH: B1 VH with Q3H, L5S, L90V, V97I
VL: B1 VL
B10: 2.2.9-1 (antibody, human IgG1, kappa, V domains shown)
VH: B1 VH with Q3H, L5S, N28K, Y32H, L90V, V97I
VL: B1 VL
B11: 2.2.13-1 (antibody, human IgG1, kappa, V domains shown)
VH: B1 VH with Q3H, L5S, N28K, Y32H, L90V, V97I
VL: B1 VL with T18R, R61S, N68I, N72S, N73S
B12: 1.1.104-1 (antibody, human IgG1, kappa, V domains shown)
VH: B1 VH
VL: B1 VL with R14S, A56S, N68T, V79I

One test addresses HIV-1 envelope glycoprotein gp120 of virus 7141 (HIV-1). In words: cell-based or functional assay.
Regarding B1, the neutralization IC50 was 4.35 µg/mL.

B2 gave a neutralization IC50 of 15.5 µg/mL.

In the case of B3, the neutralization IC50 was determined as 24.5 µg/mL.

Regarding B4, the neutralization IC50 turned out to be 7.08 µg/mL.

Take B5: the neutralization IC50 came to 16.9 µg/mL.

B6 gave a neutralization IC50 of 20.2 µg/mL.

The molecule B7 gave a neutralization IC50 of 23.8 µg/mL.

As to B8, the neutralization IC50 worked out at 13.2 µg/mL.

B9: the neutralization IC50 worked out at 2.56 µg/mL.

For B10, the neutralization IC50 worked out at 1.75 µg/mL.

In the case of B11, the neutralization IC50 came to 3.8 µg/mL.

With B12, the neutralization IC50 worked out at 5.13 µg/mL.

For another test, the target named is HIV-1 envelope glycoprotein gp120 of virus 92US727 (HIV-1). In words: cell-based or functional assay.
The molecule B1 returned a neutralization IC50 of 3.54 µg/mL.

As for B2, the neutralization IC50 was greater than 38 µg/mL.

B3 displayed a neutralization IC50 greater than 41 µg/mL.

The molecule B4 showed a neutralization IC50 greater than 50 µg/mL.

B5: the neutralization IC50 is greater than 50 µg/mL.

Regarding B6, the neutralization IC50 is greater than 50 µg/mL.

Consider B7, for which the neutralization IC50 is greater than 50 µg/mL.

As for B8, the neutralization IC50 was greater than 21 µg/mL.

In turn, B9 returned a neutralization IC50 of 11.1 µg/mL.

Molecule B10 registered a neutralization IC50 of 13.1 µg/mL.

The molecule B11 came in with a neutralization IC50 greater than 50 µg/mL.

B12: the neutralization IC50 is greater than 50 µg/mL.

The next test concerns the target HIV-1 envelope glycoprotein gp120 of virus VS001 (HIV-1). In words: cell-based or functional assay.
The molecule B1 displayed a neutralization IC50 of 0.16 µg/mL.

Molecule B2 returned a neutralization IC50 of 1.5 µg/mL.

The molecule B3 registered a neutralization IC50 of 2.41 µg/mL.

Molecule B4 returned a neutralization IC50 of 2.1 µg/mL.

The molecule B5 came in with a neutralization IC50 of 3.03 µg/mL.

B6: the neutralization IC50 is 2.4 µg/mL.

In turn, B7 displayed a neutralization IC50 of 1.92 µg/mL.

For the molecule B8, the neutralization IC50 was 0.56 µg/mL.

Molecule B9 registered a neutralization IC50 of 0.22 µg/mL.

Take B10: the neutralization IC50 is 0.15 µg/mL.

B11 showed a neutralization IC50 of 1.48 µg/mL.

B12 registered a neutralization IC50 of 0.45 µg/mL.
